Results on 72 sequences are retold here after the supplement of paper PMC10567573.

This series in a line: protein stability index of a GFP-peptide fusion (GPS, HEK-293T) (PSI 1-6); higher = more stable.
Where [1] appears, read: treatment: DMSO, c terminus: a fixed tail appended.
Where [2] appears, read: treatment: MLN4924 1 uM, 8 h, c terminus: a fixed tail appended.

± gives the standard deviation.
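Further: 24-mer peptide tiles fused after GFP, lentivirally expressed, FACS-sorted into six equal bins by GFP/DsRed ratio, decoded by Illumina sequencing, PSI is the read-weighted mean bin number.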

With AAARIRAQVPDTRWSRVGGQRFYS, the protein stability index under setting [1] worked out at 2.713 ± 0.004 and the protein stability index under setting [2] is 3 ± 0.61.

As to AACSSKRSPIIDVKNDRDRVGHKS [SERPINB5], the protein stability index stood at 4.85 ± 0.35 under setting [1] and 4.77 ± 0.11 under setting [2].

As for AAENEFVLLKKDVDAAYANKVELQ [KRT71], the protein stability index by setting is: under setting [1], 4.7 ± 0.21; under setting [2], 4.54 ± 0.39. AAVSRKKKRRMGTYSLVPKKKTKV [EHMT1] had a protein stability index under setting [1] of 4.29 ± 0.32 and a protein stability index under setting [2] of 4.32 ± 0.24.

For the sequence ACGLSDVAHVESLQEKSQCALEEY [NR2F2], the protein stability index is, setting by setting: under setting [1], 4.58 ± 0.28; under setting [2], 4.67 ± 0.3.

ADFSSMLSEEEKEELKAELVQLED [TPD52L1]: the protein stability index is, setting by setting: under setting [1], 5.47 ± 0.32; under setting [2], 5.3 ± 0.37.

ADRLVRVHGDPAVWWVSQFVKYLI [FUT8] registered a protein stability index under setting [1] of 2.25 ± 0.35 and a protein stability index under setting [2] of 2.11 ± 0.26. On the same counts, the results for ADRQCQLTFGPDSRHCPQLPPPCA [ADAMTS4] are 4.08 ± 0.16 and 4.08 ± 0.081. In the same order, the values of ADVNAQSSTGNTALTYACAGGYVD [ANKRD17] are 4.21 ± 0.39 and 4.49 ± 0.16.

Take AEERRRQNLQEEKERKLECLPPEP [FAF2]: the protein stability index under setting [1] came out at 5.71 ± 0.18 and the protein stability index under setting [2] stood at 5.51 ± 0.42. On the same counts, the results for AEGAVPETQTLTGWSKGFIGMHRE [RHOBTB1] are 4.09 ± 0.12 and 4 ± 0.23.

As for AEIATASASASTTTTVTAVTAEVD [SNAP91], the protein stability index was determined as 5.62 ± 0.23 under setting [1] and 5.47 ± 0.39 under setting [2]. Consider AELAGVIKRLWKDSGVQACFNRSR [GNAI1], for which the protein stability index by setting is: under setting [1], 2.62 ± 0.23; under setting [2], 2.42 ± 0.72.

As to AESWCYTQVKVVKFSYMWTINNFS [SPOPL], the protein stability index by setting is: under setting [1], 3.24 ± 0.56; under setting [2], 3.01 ± 0.5. In the same order, the values of AFSYSSSSRFSSSRLLGSASPSSS [PRPH] are 3.04 ± 0.21 and 3.09 ± 0.051. On the same counts, the results for AGDAEVCPTPARLATTEKKTEQQR [NOP53] are 5.37 ± 0.23 and 5.44 ± 0.16.

With AGLNKDKETEERTDGERVAEVAPE [SDE2], the protein stability index by setting is: under setting [1], 5.46 ± 0.33; under setting [2], 5.63 ± 0.16.

Regarding AGQVTALPVNSPMNKGDTEVMKCI [CHGA], the protein stability index turned out to be 4.12 ± 0.34 under setting [1] and 4.57 ± 0.22 under setting [2]. Turning to AGSTAGAAETRGAVEGAARTTPSR [PALM], the protein stability index is, setting by setting: under setting [1], 5.11 ± 0.36; under setting [2], 5.14 ± 0.27. AHWQCGATLTQVSVEYGYRPGATA [FCHO1]: the protein stability index is, setting by setting: under setting [1], 2.29 ± 0.18; under setting [2], 2.24 ± 0.49.

For the sequence AILLDAHHKTYDPTYSDFCQFRPP [VDR], the protein stability index reads like this: under setting [1], 2.31 ± 0.2; under setting [2], 2.34 ± 0.29. On to AIMLLPDENREVLQTLLYFLSDVT [DLC1], for which the protein stability index reads like this: under setting [1], 2.12 ± 0.23; under setting [2], 2.19 ± 0.13. On to AIVFTDGRAQDDVSEWASKAKANG [MATN2], for which the protein stability index reads like this: under setting [1], 3.92 ± 0.29; under setting [2], 4.26 ± 0.34. Under setting [2], AKDMKKAVAHMKYMGKGSMTGLAL [MATN2] showed a protein stability index of 2.37 ± 0.3. AKFWPRRRFNFFVLENNLEAVARH [DNAAF3]: the protein stability index turned out to be 2.13 ± 0.33 under setting [1] and 2.09 ± 0.19 under setting [2]. Consider AKGDNVYEFHLEFLDLVKPEPVYK [HACD3], for which the protein stability index was 2.41 ± 0.09 under setting [1] and 2.54 ± 0.49 under setting [2]. With AKILPSPVQGSSEDNLSLVCLPRS [DRICH1], the protein stability index turned out to be 3.94 ± 0.18 under setting [1] and 4.04 ± 0.18 under setting [2]. As to ALCQGLYFHINQTLREAHFHSLQH [FAM104A], the protein stability index is, setting by setting: under setting [1], 2.81 ± 0.54; under setting [2], 2.8 ± 0.51. With ALGDAFADLSQKSPELQEEFGYNA [ARFIP2], the protein stability index was 4.6 ± 0.17 under setting [1] and 4.63 ± 0.22 under setting [2].

With ALHCPTGTEYTCKVYPVQEALAVL [TRIB3], the protein stability index runs as follows: under setting [1], 2.27 ± 0.39; under setting [2], 2.28 ± 0.32. In the case of ALKERADSLAKEIQYLKDLIEEVR [ATF4], the protein stability index was 4.49 ± 0.36 under setting [1] and 4.59 ± 0.057 under setting [2]. As to ALQNYNNELVKCIEELCQKREELC [SSNA1], the protein stability index under setting [1] was 2.94 ± 0.18 and the protein stability index under setting [2] was 2.94 ± 0.33. In turn, ALSPKTTITMAHLLAAREDLSKII [FAM98B] returned a protein stability index under setting [1] of 2.29 ± 0.27 and a protein stability index under setting [2] of 2.55 ± 0.065. With ALTNIQNCMAEKRETVLIETQLKA [C8orf76], the protein stability index by setting is: under setting [1], 3.19 ± 0.34; under setting [2], 3.09 ± 0.47. With ALVIMWQKHYVYGPLPQSFDKEWV [COX4I1], the protein stability index stood at 2.88 ± 0.33 under setting [1] and 2.92 ± 0.39 under setting [2]. In the same order, the values of ALWCAAGAGHFEVVKLLVSHGANV [FEM1B] are 2.51 ± 1.3 and 2.37 ± 0.26. AMCVRYDGVEVDDSYCDALTRPEP [ADAMTSL2] gave a protein stability index under setting [1] of 4.37 ± 0.33 and a protein stability index under setting [2] of 4.31 ± 0.28. On the same counts, the results for AMRAGVLADDHLIEVNGENVEDAS [PDZK1] are 5.41 ± 0.23 and 5.3 ± 0.11. In the same order, the values of ANGEIQRHAEQQALRLEVRAGPDS [CARM1] are 4.56 ± 0.67 and 4.74 ± 0.19. For the sequence APAASEGAAAPATPTPVAAALDAC [SNAP91], the protein stability index runs as follows: under setting [1], 5.32 ± 0.23; under setting [2], 5.18 ± 0.31. In the same order, the values of APGADVKVHRARKTMPKSVVGLHA [EHMT1] are 3.7 ± 0.18 and 3.91 ± 0.41. On the same counts, the results for APQHPAASALRTRMTGGRPPLPPP [DYRK1B] are 4.38 ± 0.15 and 4.41 ± 0.23. As for APSATIHQGEEEGPLDIWAVVKPG [FBXO34], the protein stability index runs as follows: under setting [1], 4.71 ± 0.27; under setting [2], 4.79 ± 0.13.

For the sequence AQAQALAAQAAAAAHAAQAHRERN [PI4K2A], the protein stability index by setting is: under setting [1], 4.9 ± 0.076; under setting [2], 4.8 ± 0.12.

In turn, AQGFAADVRLMFSNCYKYNPPDHE [BRD3] gave a protein stability index under setting [1] of 2.99 ± 0.31 and a protein stability index under setting [2] of 2.8 ± 0.39. Regarding AQNAVRLHYGLPVVVKLLHPPSHW [CTNNB1], the protein stability index reads like this: under setting [1], 2.32 ± 0.23; under setting [2], 2.23 ± 0.048. Consider AREGRETLKCLSHHVADAYTSSQK [TOR1AIP2], for which the protein stability index is 4.48 ± 0.35 under setting [1] and 4.44 ± 0.37 under setting [2].

Consider AREYYSEADASHCIQQILEAVLHC [CAMK2A], for which the protein stability index reads like this: under setting [1], 2.48 ± 0.26; under setting [2], 2.55 ± 0.24. On the same counts, the results for ARFAEKEELMLVHSLEYIDLMETT [HDAC6] are 2.66 ± 0.17 and 2.75 ± 0.38.

As for ARRQWRDECLMRLAKLKSQVQPQ [CRYL1], the protein stability index came out at 2.9 ± 0.77 (treatment: DMSO, c terminus: native) and 3.33 ± 0.73 (treatment: MLN4924 1 uM, 8 h, c terminus: native). Take ASDGSDFTFLRPLSVQQPTALALE [PCDHGC5]: the protein stability index was determined as 3.82 ± 0.17 under setting [1] and 3.82 ± 0.32 under setting [2]. As for ASIPEHLAYGSVITVKNLRMAIGY [POMT2], the protein stability index under setting [1] came to 2.41 ± 0.29 and the protein stability index under setting [2] amounted to 2.43 ± 0.33. In the case of ASKLKETSPLTAEKLCIYTDNSIK [CCND2], the protein stability index is, setting by setting: under setting [1], 4 ± 0.18; under setting [2], 4.05 ± 0.092. In the same order, the values of ASLGREESRAPSPLLHKDSASLEV [CBY2] are 4.79 ± 0.31 and 4.85 ± 0.19. Sequence ASSVHLKSESSLPHQTSKMENLPG yielded a protein stability index under setting [1] of 4.8 ± 0.26 and a protein stability index under setting [2] of 4.85 ± 0.49.

On to ASVAMICAIASGSELSESAFGYFI [SLC29A1], for which the protein stability index by setting is: under setting [1], 2.94 ± 0.68; under setting [2], 2.48 ± 0.52. As to ATCRLCGEQVGRGPGFHAGTSALW [ZBED3], the protein stability index worked out at 2.2 ± 0.57 under setting [1] and 2.39 ± 0.12 under setting [2]. In the same order, the values of ATGDTALTYACENGHTDVADVLLQ [ANKRD17] are 4.41 ± 0.21 and 4.56 ± 0.08. On the same counts, the results for ATGKHYGASSCDGCKGFFRRSVRK [HNF4A] are 3.35 ± 0.19 and 3.73 ± 0.21. As for ATQMMVDIDGDVLVFLELAQFHCA [RHOBTB2], the protein stability index was 3.08 ± 0.33 under setting [1] and 2.89 ± 0.75 under setting [2]. On to AVGSGERRGGGPVFPAPVVGSGGA [ZBTB22], for which the protein stability index is, setting by setting: under setting [1], 4.39 ± 0.19; under setting [2], 4.45 ± 0.38. On the same counts, the results for AVPKRLLEIVGREGVSLTAVLTTH [HAGHL] are 2.5 ± 0.39 and 2.2 ± 0.6. Take AYISLVEEEDQHMKLSLGGSEMGL [KLHL13]: the protein stability index runs as follows: under setting [1], 2.98 ± 0.38; under setting [2], 3.06 ± 0.52. CAACKTPIRNRAFYMEEGVPYCER [PDLIM7]: the protein stability index is, setting by setting: under setting [1], 2.93 ± 0.3; under setting [2], 3.38 ± 0.18.

In turn, CARMLYNYGADTNTRNYEGQTPLA [ASB7] registered a protein stability index under setting [1] of 2.63 ± 0.28 and a protein stability index under setting [2] of 2.62 ± 0.36. Take CDVWSIGCILFEYYRGFTLFQTHE [CLK3]: the protein stability index under setting [1] was 3.1 ± 0.48 and the protein stability index under setting [2] stood at 3.25 ± 0.44. For the sequence CFKAAFLDFKDLLESEDWEEDNWD [TEX19], the protein stability index by setting is: under setting [1], 2.95 ± 0.2; under setting [2], 3.24 ± 0.36. Regarding CFKAKLHRKRGSQPPDMASALTDR [RSPH3], the protein stability index is, setting by setting: under setting [1], 3.66 ± 0.26; under setting [2], 3.95 ± 0.28. Consider CGRSEVRPVAPRRPRDAVGQRGAQ [SMAD6], for which the protein stability index by setting is: under setting [1], 4.37 ± 0.24; under setting [2], 4.57 ± 0.11.

For CIKIWDVTSQATLLTITKAHSNAI [WDR88], the protein stability index reads like this: under setting [1], 2.28 ± 0.33; under setting [2], 2.61 ± 0.28. On the same counts, the results for CIPASSSFVYGAVPIGASIYVIGD [GAN] are 2.97 ± 0.65 and 2.48 ± 0.61. Regarding CKVGASSDPCGQLRPTLLLTSLHH [PNLIPRP1], the protein stability index under setting [1] is 2.1 ± 0.24 and the protein stability index under setting [2] is 2.22 ± 0.097.
